T1: human Ang2 protein (R&D Systems, 623-AN-01M/CF; 623-AN/CF) (human, UniProt O15123 19-496)
T1 chain: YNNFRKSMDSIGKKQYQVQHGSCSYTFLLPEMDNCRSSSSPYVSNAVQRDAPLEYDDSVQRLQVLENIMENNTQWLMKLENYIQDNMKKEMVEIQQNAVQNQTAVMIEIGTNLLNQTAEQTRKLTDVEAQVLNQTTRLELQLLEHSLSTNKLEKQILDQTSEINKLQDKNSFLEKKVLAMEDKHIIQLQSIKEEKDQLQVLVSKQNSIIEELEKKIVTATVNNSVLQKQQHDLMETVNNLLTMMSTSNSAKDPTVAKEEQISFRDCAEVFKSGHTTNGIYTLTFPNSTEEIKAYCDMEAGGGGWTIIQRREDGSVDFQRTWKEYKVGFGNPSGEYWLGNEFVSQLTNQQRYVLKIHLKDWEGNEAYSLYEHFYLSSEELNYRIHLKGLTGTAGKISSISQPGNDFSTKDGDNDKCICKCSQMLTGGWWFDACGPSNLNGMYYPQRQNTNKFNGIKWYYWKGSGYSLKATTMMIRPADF

T2: human Ang2 protein (R&D Systems, 623-AN-01M/CF; 623-AN/CF) (human, UniProt O15123 19-496)
T2 construct: Bought recombinant protein; also called Ang2 proteins; angiopoietin-2
T2 sequence (looked up): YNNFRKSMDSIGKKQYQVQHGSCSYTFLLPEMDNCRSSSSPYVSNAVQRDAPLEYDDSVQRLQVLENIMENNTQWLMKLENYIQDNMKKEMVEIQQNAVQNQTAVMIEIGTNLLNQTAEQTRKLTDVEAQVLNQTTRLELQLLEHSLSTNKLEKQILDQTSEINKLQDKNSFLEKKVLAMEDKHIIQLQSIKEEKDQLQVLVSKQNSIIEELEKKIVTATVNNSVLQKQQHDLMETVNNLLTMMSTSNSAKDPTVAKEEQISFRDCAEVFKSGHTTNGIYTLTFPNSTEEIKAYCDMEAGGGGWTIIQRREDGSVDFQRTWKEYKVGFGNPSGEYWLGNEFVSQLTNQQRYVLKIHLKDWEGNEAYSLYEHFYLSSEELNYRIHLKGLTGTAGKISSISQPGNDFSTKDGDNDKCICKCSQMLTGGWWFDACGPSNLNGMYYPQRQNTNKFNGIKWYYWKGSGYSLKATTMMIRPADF

T3: membrane-anchored human Ang2 protein expressed on CHO-K1 cells (human, UniProt O15123 19-496)
T3 chain: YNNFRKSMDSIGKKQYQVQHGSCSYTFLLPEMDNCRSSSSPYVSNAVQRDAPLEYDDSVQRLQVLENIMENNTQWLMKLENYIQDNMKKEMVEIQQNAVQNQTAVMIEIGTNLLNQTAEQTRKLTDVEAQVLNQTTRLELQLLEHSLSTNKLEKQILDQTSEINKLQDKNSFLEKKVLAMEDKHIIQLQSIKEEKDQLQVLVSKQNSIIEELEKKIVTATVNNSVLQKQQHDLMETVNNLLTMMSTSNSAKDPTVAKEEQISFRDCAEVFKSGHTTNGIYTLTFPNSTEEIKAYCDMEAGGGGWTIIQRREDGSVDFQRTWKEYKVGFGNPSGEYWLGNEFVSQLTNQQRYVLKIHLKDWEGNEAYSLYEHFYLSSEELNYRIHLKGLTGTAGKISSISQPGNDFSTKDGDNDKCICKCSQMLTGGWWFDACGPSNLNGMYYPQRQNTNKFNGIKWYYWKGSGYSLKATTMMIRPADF

T4: membrane-anchored cyno Ang2 protein expressed on CHO-K1 cells (cyno, UniProt A0A2K5VNX6 19-496)
T4 chain: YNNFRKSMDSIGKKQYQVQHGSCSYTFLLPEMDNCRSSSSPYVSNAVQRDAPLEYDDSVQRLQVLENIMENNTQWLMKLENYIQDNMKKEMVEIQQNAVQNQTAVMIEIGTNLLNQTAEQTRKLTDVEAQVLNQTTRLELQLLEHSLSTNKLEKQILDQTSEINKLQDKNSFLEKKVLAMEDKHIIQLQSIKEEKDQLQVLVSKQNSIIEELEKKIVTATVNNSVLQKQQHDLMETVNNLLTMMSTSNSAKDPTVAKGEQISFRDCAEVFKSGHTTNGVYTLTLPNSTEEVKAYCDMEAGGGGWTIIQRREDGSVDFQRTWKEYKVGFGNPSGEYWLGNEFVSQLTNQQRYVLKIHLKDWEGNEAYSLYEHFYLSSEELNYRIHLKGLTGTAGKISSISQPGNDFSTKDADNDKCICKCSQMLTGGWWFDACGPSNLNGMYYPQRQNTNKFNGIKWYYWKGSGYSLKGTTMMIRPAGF


How the values were obtained:
[1] = target: T1, human Ang2 protein (R&D Systems, …); assay: ELISA
[2] = target: T2, human Ang2 protein (R&D Systems, …); assay: indirect ELISA, human Ang2 coated at 0.5 µg/ml
Description: The antibodies were tested for their binding activities to Ang2 in an indirect ELISA. Briefly, 100 μl of 0.5 μg/ml human or mouse Ang2 proteins (R&D Systems; 623-AN-01M/CF for human Ang2, 7186-AN-025/CF for mouse Ang2) were pre-coated onto ELISA plates overnight at 4° C. On the next day, the plates were incubated with […] diluted primary antibodies, with initial concentration at 1 μg/ml. The plates were added with HRP-conjugated goat anti-mouse IgG (H+L) and then TMB for chromogenic reaction. The antibody-antigen binding curves were generated with optical density readings at 450 nm. Raw data was plotted using GraphPad Prism v6.02 software with four parameters, and best-fit values program was used to analyze the EC₅₀.

[3] = target: T3, membrane-anchored human Ang2 protein …; assay: FACS
[4] = target: T4, membrane-anchored cyno Ang2 protein …; assay: FACS

EC50 [1] [ng/mL]	binding result [2]	EC50 [3] [nM]	EC50 [4] [nM]	Binder
9.97				27H11B5 (antibody, V domains shown) VH: DVQLQESGPGLVKPSQSLSLTCTVTGYSITSDYAWNWIRQFPGNKLEWMGYISYSGSTSYNPSLKSRISITRDTSKNQFFLQLNSVTTEDTATYYCARCVYGNYVGAMDYWGQGTSVTVSS VL: SIVMTQTPKFLLVSAGDRVTITCKASQSVTNDVAWYQQKPGQSPKLLIYYASNRYTGVPDRFTGSGYGTDFTFTISTVQTEDLAVYFCQQDYSSPLTFGAGTKLELK
6.6				31E2D4 (antibody, V domains shown) VH: QIQLVQSGPELKKPGETVKISCKASGYTLTNYGMNWVKQAPGKGLKWMGWINSYSGVPTYADDFKGRFAFSLETSASTAYLQINNLKNEDTATYFCARGENNYYGGSYDWGQGTTLTVSS VL: SIVMTQTPKFLLVSAGDRVTITCKASQSVSNDVAWYQQKPGQSPKLLIYYASNRYTGVPDRFTGSGYGTDFTFTISTVQAEDLAVYFCQQDYSSPLTFGAGTKLELR
5.59				33A3E2 (antibody, V domains shown) VH: EVKLVESGGGLVQPGGSRKLSCAASGFTFSDYGMVWVRQAPGKGLEWVAYIGSGRSTIYYADTVKGRFTISRDNPKNTLFLQMSSLRSEDTAMYYCAREDNGYSYAMDYWGQGTSVTVSS VL: DIQMTQSPASQSASLGESVTITCLTSQTIGTWLAWYQQKPGKSPQLLIYAATSLADGVPSRFSGSGSGTKFSFKISSLQAEDFVSYYCQQLYSIPLTFGAGTKLELK
4.47				39C1C4 (antibody, V domains shown) VH: EVKLVESGGGLVQPGGSRKLSCAASGFTFSDYGMVWVRQAPGKGLEWVAYIGSGRNTIYYADTVKGRFTISRDNPKNTLFLQMSSLRSEDTAMYYCVREDNGYSYAMDYWGQGTSVTVSS VL: DIQMTQSPASQSASLGESVTITCLASQTIGTWLAWYQQKPGKSPQLLIYAATSLADGVPSRFSGSGSGTKFSFKISSLQAEDFVSYYCQQLYSIPLTFGAGTKLELK
4.57				49B8G4 (antibody, V domains shown) VH: EVKLVESGGGLVQPGGSRKLSCAASGFTFSDYGMVWVRQAPGKGLEWIAYIGSGRNTIYYADTVKGRFTISRDNPKNTLFLQMSSLRSEDTAMYYCAREDNGYSYAMDYWGQGTSVTVSS VL: DIQMTQSPASQSASLGESVTVTCLASQTIGTWLAWYQQKPGKSPQLLIYAATSLADGVPSRFSGSGSGTKFSFKISSLQAEDFGSYYCQQLYSIPLTFGVGTKLELK
66.2				50H8E5C5 (antibody, V domains shown) VH: EVQLHQSGPELVKPGASVKMSCKASGYTFTNYYMHWVKQSHGKSIEWIGYIYPNNGDTNYNQKFKGKATLTVDKSSSTAYMELRSLTSEDSAVYSCAVVSYSNYVAGAMDYWGQGTSVTVSS VL: SIVMTQTPKFLLVSAGDRVTITCKASQSVSNDVAWYQQKPGQSPKLLIYFASNRYTGVPDRFTGSGYGTDFTFTISTVQAEDLAVYFCQQDYSSPYTFGGGTKLEIK
11	binds	0.14	29.4	49E4C2 (antibody, V domains shown, Hybridoma antibody purified with Protein-A beads) VH: EVKLEESGGGLVQPGGSMKLSCVASGITFSNYWMDWVRQSPEKGLEWVAEIRLKSNNYATHYAESVKGRFTISRDDSKSSVYLQMNNLRAEDTGIYYCTRGAPLFDGYYKGVYFDYWGQGTTLTVSS VL: STVMTQTPKSLLASAGDRVAITCKASQSVSNEVAWYQQKPGLSPKLLIYYASNRYTGVPDRFTGSGYGTDFTFTISTVQAEDLAVYFCQQDYNSPYTFGGGTKLEIK
7.03				45C5A1 (antibody, V domains shown) VH: EVKLVESGGGLVQPGGSLKLSCAASGFTFSNYTMSWVRQTPEKRLELVAEISNSDGSAYYPDTVKGRFTISRDNAKKTLYLQMSSLKSEDTAMYYCARHGGLRVYYAIDYWGQGTSVTVSS VL: DIQMTQSPASQSASLGESVTITCLASQTIGPWLAWYQQKPGKSPQLLIYAATSLADGVPSRFSGSGSGTKFSFKISSLQAEDFVSYYCQQLYSDPLYTFGGGTKLEMK

More lines, now with the values behind:

Binder	EC50 [1] [ng/mL]	binding result [2]	EC50 [3] [nM]	EC50 [4] [nM]
7F10B2 (antibody, V domains shown) VH: EVQLQQSGPELVKPGSSVKISCKTSGYTFTDYNMDWVKQSHGKSLEWIGTINPKNGETSDNQKFKAKATLTVDKSSSTAYMELRSLTSEDSAVYYCAKNVDYSNYLFFPMDYWGQGTSVTVSS VL: SIVMTQTPKFLLVSAGDRVTITCKASQSVSNDVAWYQQKPGQSPKLLIYYASNRFTGVPDRFTGSGYGTDFTFTITTVQAEDLAVYFCQQDYSSRTFGGGTKLEIK	4.62			
15B4C6 (antibody, V domains shown) VH: QVQLKESGPGLVAPSQSLSITCTVSGFSLNGYGVNWVRQPPGKGLEWLGLIWNNGSTDYNSALKSRLTISKDNSKSLVFLKMNSLQTDDTARYYCARDPLYLLRGAMDYWGQGTSVTVSS VL: DIVLTQSPASLTVSLGQRATISCRASKSVSSSGYNFIYWYQQKPGQPPKLLIYLASNLESGVPARFSGSGSGTDFTLNIHPVEEEDAATYYCQHSRDLPLTFGAGTKLELK	11.2			
15H10D12 (antibody, V domains shown) VH: DVQLQESGPGLVKPSQSLSLTCTVTGYSITSDYAWNWIRQFPGNRLEWMGYINYSGSTDYNPSLKSRISITRDTSKNQFFLQLNSVTTEDTATYYCARGVRGDMDYWGQGTSVTVSS VL: SIVMTQTPKFLLVSAGDRVTITCKASQSVSNDVAWYQQKPGQSPKLLIYYASNRYTGVPDRFTGSGYGTDFTFTISTVQADDLAVYFCQQDYSSPFTFGSGTKLEIK	9.28			
42C3A4 (antibody, V domains shown, Hybridoma antibody purified with Protein-A beads) VH: EVKLEESGGGLVQPGGSMKLSCVASGITFSNYWMDWVRQSPEKGLEWVAEIRLKSNNYATHYAESVKGRFTISRDDSKNSVYLQMNNLRAEDTGIYYCTRGAPLFGGYYKGVYFDYWGQGTTLTVSS VL: SFVMTQTPKSLLASAGDRVTITCQASQSVSNEVAWYQQKPGQSPKLLIYYASSRYTGVPDRFAGSGYGTDFTFTISTVQAEDLAVYFCQQDYNSPYTFGGGTKLEIK	11.4	binds	0.155	8.13
25C5D6F3 (antibody, V domains shown) VH: EVNLVESGGGLVQPGGSLRLSCATSGFTFSDFYMEWVRQPPGKRLEWIAASRNKANDYTTEYSASVKGRFIVSRDTSQSILYLQMNALRAEDTAIYYCTRGSYTNYTWFAYWGQGTLVTVSA VL: SIVMTQTPKFLLVSAGDRVTITCKASQSVSNDVAWYQQKPGQSPKLLIYFASNRYTGVPDRFTGSGYGTDFTFTISTVQAEDLAVYFCQQDYSSPYTFGGGTKLEIK	17.6			
17F3E8 (antibody, V domains shown) VH: EVQLHQSGPELVKPGASVKMSCKASGYTFTNYYIHWVKQSHGKTIEWIGYIHPNNGDTSYNQKFKDKATLTVDKSSSTAYMDLRSLTSEDSAVYYCSVVSYSHYVAGALDNWGQGTSVTVSS VL: SIVMTQTPKFLLVSAGDRVTITCKASQSVSNDVAWYQQKPGQSPKLLIYFASNRYTGVPDRFTGSGYGTDFTFTISTVQAEDLAVYFCQQDYSSPYTFGGGTKLEIK	12.2			
